Measurements published in patent US20240117018A1.

Legend:
Assay in all cases: cell-based or functional assay
[1] = target: HIV-1 Env pseudovirus 0815.v3.c3 (HIV-1)
[2] = target: HIV-1 Env pseudovirus 6041.v3.c23 (HIV-1)
[3] = target: HIV-1 Env pseudovirus 6540.v4.c1 (HIV-1)
[4] = target: HIV-1 Env pseudovirus BJOX028000.10.3 (HIV-1)
[5] = target: HIV-1 Env pseudovirus C4118.c09 (HIV-1)
[6] = target: HIV-1 Env pseudovirus T250-4 (HIV-1)
[7] = target: HIV-1 Env pseudovirus T255-34 (HIV-1)
[8] = target: Env of HIV-1 pseudovirus 1006_11_C3_1601 (HIV-1)
[9] = target: Env of HIV-1 pseudovirus 1056_10_TA11_1826 (HIV-1)
[10] = target: Env of HIV-1 pseudovirus 6535.3 (HIV-1)
[11] = target: Env of HIV-1 pseudovirus 9004SS_A3_4 (HIV-1)
[12] = target: Env of HIV-1 pseudovirus 928-28 (HIV-1)
[13] = target: Env of HIV-1 pseudovirus CAP210.2.00.E8 (HIV-1)
[14] = target: Env of HIV-1 pseudovirus CNE20 (HIV-1)
[15] = target: Env of HIV-1 pseudovirus CNE58 (HIV-1)
[16] = target: Env of HIV-1 pseudovirus HIV-16055-2.3 (HIV-1)
[17] = target: Env of HIV-1 pseudovirus Q769.d22 (HIV-1)
[18] = target: Env of HIV-1 pseudovirus Q842.d12 (HIV-1)
[19] = target: Env of HIV-1 pseudovirus WITO4160.33 (HIV-1)
[20] = target: Env of HIV-1 pseudovirus ZM109F.PB4 (HIV-1)
[21] = target: Env of HIV-1 pseudovirus ZM53M.PB12 (HIV-1)

8ANC195 (antibody) was tested, and the IC50 (Titer in TZM.bl cells) [1] was 1.94 µg/mL, the IC80 (Titer in TZM.bl cells) [1] was 1.94 µg/mL and the IC50 (Titer in TZM.bl cells) [2] was over 50 µg/mL. It also gave an IC80 (Titer in TZM.bl cells) [2] of over 50 µg/mL, an IC50 (Titer in TZM.bl cells) [3] of over 50 µg/mL and an IC80 (Titer in TZM.bl cells) [3] of over 50 µg/mL. For the same substance, the IC50 (Titer in TZM.bl cells) [4] was 0.45 µg/mL, the IC80 (Titer in TZM.bl cells) [4] was 2.83 µg/mL and the IC50 (Titer in TZM.bl cells) [5] was 0.2 µg/mL. The IC80 (Titer in TZM.bl cells) [5] was 0.71 µg/mL, the IC50 (Titer in TZM.bl cells) [6] was over 50 µg/mL and the IC80 (Titer in TZM.bl cells) [6] was over 50 µg/mL. The IC50 (Titer in TZM.bl cells) [7] was 0.54 µg/mL and the IC80 (Titer in TZM.bl cells) [7] was 8.09 µg/mL.
3BNC117 (antibody) gave an IC50 (Titer in TZM.bl cells) [1] of 0.01 µg/mL, an IC80 (Titer in TZM.bl cells) [1] of 0.02 µg/mL and an IC50 (Titer in TZM.bl cells) [2] of 0.01 µg/mL. It also gave an IC80 (Titer in TZM.bl cells) [2] of 0.07 µg/mL, an IC50 (Titer in TZM.bl cells) [3] of over 50 µg/mL and an IC80 (Titer in TZM.bl cells) [3] of over 50 µg/mL. The IC50 (Titer in TZM.bl cells) [4] was 0.01 µg/mL, the IC80 (Titer in TZM.bl cells) [4] was 0.05 µg/mL and the IC50 (Titer in TZM.bl cells) [5] was 0.09 µg/mL. For the same substance, the IC80 (Titer in TZM.bl cells) [5] was 0.52 µg/mL, the IC50 (Titer in TZM.bl cells) [6] was over 15 µg/mL and the IC80 (Titer in TZM.bl cells) [6] was over 15 µg/mL. It also gave an IC50 (Titer in TZM.bl cells) [7] of 0.02 µg/mL and an IC80 (Titer in TZM.bl cells) [7] of 0.14 µg/mL.
Work on PG9 (antibody) yielded an IC50 [8] of 0.366 µg/mL, an IC80 [8] of 1.91 µg/mL and an IC50 [9] of 6.34 µg/mL. For the same substance, the IC80 [9] was 38.3 µg/mL, the IC50 [10] was 0.176 µg/mL and the IC80 [10] was 0.627 µg/mL. For the same substance, the IC50 [11] was 0.088 µg/mL, the IC80 [11] was 0.251 µg/mL and the IC50 [12] was 0.101 µg/mL. It also gave an IC80 [12] of 0.45 µg/mL, an IC50 [13] of 0.04 µg/mL and an IC80 [13] of 0.173 µg/mL. The IC50 [14] was 0.052 µg/mL, the IC80 [14] was 0.278 µg/mL and the IC50 [15] was 0.038 µg/mL. It also gave an IC80 [15] of 0.122 µg/mL, an IC50 [16] of 0.021 µg/mL and an IC80 [16] of 0.06 µg/mL. It also gave an IC50 [17] of 0.025 µg/mL, an IC80 [17] of 0.068 µg/mL and an IC50 [18] of 0.023 µg/mL. It also gave an IC80 [18] of 0.081 µg/mL, an IC50 [19] of 0.01 µg/mL and an IC80 [19] of 0.037 µg/mL. It also gave an IC50 [20] of 0.256 µg/mL, an IC80 [20] of 6.69 µg/mL and an IC50 [21] of 0.069 µg/mL. For the same substance, the IC80 [21] was 0.221 µg/mL.
Work on VRC07 (antibody) yielded an IC50 (Titer in TZM.bl cells) [1] of 0.015 µg/mL, an IC80 (Titer in TZM.bl cells) [1] of 0.051 µg/mL and an IC50 (Titer in TZM.bl cells) [2] of 0.018 µg/mL. For the same substance, the IC80 (Titer in TZM.bl cells) [2] was 0.058 µg/mL, the IC50 (Titer in TZM.bl cells) [3] was over 50 µg/mL and the IC80 (Titer in TZM.bl cells) [3] was over 50 µg/mL. For the same substance, the IC50 (Titer in TZM.bl cells) [4] was 0.011 µg/mL, the IC80 (Titer in TZM.bl cells) [4] was 0.069 µg/mL and the IC50 (Titer in TZM.bl cells) [5] was 0.121 µg/mL. It also gave an IC80 (Titer in TZM.bl cells) [5] of 0.444 µg/mL, an IC50 (Titer in TZM.bl cells) [6] of over 50 µg/mL and an IC80 (Titer in TZM.bl cells) [6] of over 50 µg/mL. The IC50 (Titer in TZM.bl cells) [7] was 0.227 µg/mL and the IC80 (Titer in TZM.bl cells) [7] was 0.987 µg/mL.
